Data set [1] addresses T1, ZK337.2 (ZK337.2) (Caenorhabditis elegans) (UniProt O46016).
T1 sequence: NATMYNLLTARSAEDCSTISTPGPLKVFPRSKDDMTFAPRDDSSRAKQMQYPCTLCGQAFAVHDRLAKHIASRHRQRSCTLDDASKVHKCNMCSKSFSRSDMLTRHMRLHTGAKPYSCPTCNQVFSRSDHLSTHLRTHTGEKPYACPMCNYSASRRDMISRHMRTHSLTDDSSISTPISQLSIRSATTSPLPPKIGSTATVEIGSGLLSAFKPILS

Data set [2] has as its target egrh-1 (C27C12.2) (Caenorhabditis elegans) (UniProt Q18250).
In data set [3] the target is klf-3 (F54H5.4) (Caenorhabditis elegans) (UniProt Q65ZG6).
In data set [4] the target is sptf-3 (Y40B1A.4) (Caenorhabditis elegans) (UniProt Q9XW26).
For data set [5], the target named is ZC328.2 (ZC328.2) (Caenorhabditis elegans) (UniProt O02050).
The target of data set [6] is T2, nhr-66 (T09A12.4) (Caenorhabditis elegans) (UniProt H2KYJ8).
T2 sequence: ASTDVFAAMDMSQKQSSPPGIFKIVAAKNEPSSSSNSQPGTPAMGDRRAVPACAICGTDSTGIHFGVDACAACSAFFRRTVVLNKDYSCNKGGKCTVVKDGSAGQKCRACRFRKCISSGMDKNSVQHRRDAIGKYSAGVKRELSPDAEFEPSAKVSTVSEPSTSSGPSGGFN

The target in data set [7] is T3, nhr-70 (Y51A2D.17) (Caenorhabditis elegans) (UniProt G5EEL3).
T3 sequence: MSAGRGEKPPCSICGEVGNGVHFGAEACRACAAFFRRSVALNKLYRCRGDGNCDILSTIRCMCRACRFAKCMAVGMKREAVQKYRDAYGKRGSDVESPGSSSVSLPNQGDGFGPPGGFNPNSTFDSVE

The target of data set [8] is T4, odr-7 (T18D3.2) (Caenorhabditis elegans) (UniProt P41933).
T4 sequence: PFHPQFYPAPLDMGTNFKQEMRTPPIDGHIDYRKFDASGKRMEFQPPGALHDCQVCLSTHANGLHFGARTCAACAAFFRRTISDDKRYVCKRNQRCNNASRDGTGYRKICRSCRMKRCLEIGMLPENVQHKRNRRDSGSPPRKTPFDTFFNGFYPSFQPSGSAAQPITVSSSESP

For data set [9], the system named is T5, slr-2 (Y59A8B.13) (Caenorhabditis elegans).
T5 sequence: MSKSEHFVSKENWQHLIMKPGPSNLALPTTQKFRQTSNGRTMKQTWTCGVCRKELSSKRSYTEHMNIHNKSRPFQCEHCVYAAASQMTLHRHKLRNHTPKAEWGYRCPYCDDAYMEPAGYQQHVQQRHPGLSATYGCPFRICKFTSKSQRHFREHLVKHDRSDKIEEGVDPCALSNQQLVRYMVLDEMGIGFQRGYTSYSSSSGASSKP

The target in data set [10] is T6, ceh-26 (K12H4.1) (Caenorhabditis elegans) (UniProt P34522).
T6 sequence: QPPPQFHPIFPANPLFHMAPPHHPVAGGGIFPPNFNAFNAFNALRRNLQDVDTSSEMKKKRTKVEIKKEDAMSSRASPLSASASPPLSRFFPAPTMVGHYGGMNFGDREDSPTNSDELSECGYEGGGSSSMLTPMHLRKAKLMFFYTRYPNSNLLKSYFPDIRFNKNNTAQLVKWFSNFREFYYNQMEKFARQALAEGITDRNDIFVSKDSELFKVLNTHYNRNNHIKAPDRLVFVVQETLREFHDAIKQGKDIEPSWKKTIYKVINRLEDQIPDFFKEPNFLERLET

For data set [11], the target named is T7, Y61A9LA.9 (Y61A9LA.9) (Caenorhabditis elegans) (UniProt Q9N312).
T7 sequence: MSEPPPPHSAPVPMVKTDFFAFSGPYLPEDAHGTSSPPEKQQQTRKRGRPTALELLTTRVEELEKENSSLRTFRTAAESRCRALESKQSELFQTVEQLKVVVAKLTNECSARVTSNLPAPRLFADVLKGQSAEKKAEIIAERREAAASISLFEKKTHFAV

Data set [12] concerns the target T8, die-1 (C18D1.1) (Caenorhabditis elegans) (UniProt A0A131MCR4).
T8 sequence: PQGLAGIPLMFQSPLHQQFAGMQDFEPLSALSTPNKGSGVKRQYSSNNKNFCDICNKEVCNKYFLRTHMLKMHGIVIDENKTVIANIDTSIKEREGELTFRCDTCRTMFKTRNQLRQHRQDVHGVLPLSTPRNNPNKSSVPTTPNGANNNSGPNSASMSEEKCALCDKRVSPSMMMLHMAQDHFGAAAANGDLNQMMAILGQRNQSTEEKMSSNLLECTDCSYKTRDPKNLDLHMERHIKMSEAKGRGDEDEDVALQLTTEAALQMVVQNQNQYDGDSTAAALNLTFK

Data set [13] addresses T9, dmd-6 (F13G11.1) (Caenorhabditis elegans) (UniProt O62159).
T9 sequence: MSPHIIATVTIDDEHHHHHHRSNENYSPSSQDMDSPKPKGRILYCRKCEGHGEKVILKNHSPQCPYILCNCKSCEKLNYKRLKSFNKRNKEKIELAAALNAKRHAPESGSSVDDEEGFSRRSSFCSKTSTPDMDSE

Data set [14] has as its target T10, ceh-23 (ZK652.5) (Caenorhabditis elegans) (UniProt P34663).
T10 sequence: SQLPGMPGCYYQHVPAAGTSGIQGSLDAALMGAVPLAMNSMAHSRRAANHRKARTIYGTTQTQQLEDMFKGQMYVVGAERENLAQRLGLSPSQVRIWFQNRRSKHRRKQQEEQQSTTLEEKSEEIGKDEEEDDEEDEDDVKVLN

The target in data set [15] is T11, eyg-1 (Y53C12C.1) (Caenorhabditis elegans) (UniProt O01996).
T11 sequence: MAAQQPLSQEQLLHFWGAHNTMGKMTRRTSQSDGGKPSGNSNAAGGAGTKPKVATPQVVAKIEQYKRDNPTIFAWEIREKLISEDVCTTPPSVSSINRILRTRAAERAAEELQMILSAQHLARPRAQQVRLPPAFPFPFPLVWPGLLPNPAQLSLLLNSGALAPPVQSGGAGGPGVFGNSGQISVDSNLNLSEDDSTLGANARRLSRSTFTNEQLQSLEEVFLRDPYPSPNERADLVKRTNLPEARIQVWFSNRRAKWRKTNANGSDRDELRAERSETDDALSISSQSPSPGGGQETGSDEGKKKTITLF

In data set [16] the target is T12, ceh-51 (Y80D3A.3) (Caenorhabditis elegans) (UniProt Q9U1R1).
T12 sequence: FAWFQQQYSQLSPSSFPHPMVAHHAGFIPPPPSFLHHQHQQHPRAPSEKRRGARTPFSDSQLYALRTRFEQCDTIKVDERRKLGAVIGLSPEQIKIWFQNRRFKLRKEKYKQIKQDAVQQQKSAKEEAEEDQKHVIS

The results in this text go back to PMC4434323.

Chain of egrh-1 (C27C12.2) (Caenorhabditis elegans) (Q18250 324-461): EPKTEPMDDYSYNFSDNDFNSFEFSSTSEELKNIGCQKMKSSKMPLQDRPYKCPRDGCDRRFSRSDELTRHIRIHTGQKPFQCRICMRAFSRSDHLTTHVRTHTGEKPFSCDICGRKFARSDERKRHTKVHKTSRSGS
Chain of sptf-3 (Y40B1A.4) (Caenorhabditis elegans) (Q9XW26 266-412): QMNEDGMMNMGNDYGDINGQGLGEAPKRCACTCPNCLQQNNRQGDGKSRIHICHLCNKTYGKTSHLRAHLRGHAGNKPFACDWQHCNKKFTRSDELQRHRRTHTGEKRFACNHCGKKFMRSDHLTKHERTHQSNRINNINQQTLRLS
Chain of ZC328.2 (ZC328.2) (Caenorhabditis elegans) (O02050 entry or part of it): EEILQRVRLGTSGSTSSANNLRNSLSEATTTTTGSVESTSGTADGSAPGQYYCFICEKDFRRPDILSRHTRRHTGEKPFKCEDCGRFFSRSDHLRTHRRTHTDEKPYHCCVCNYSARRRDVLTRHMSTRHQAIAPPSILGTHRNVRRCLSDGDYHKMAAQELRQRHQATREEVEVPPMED
Chain of klf-3 (F54H5.4) (Caenorhabditis elegans) (Q65ZG6 180-315): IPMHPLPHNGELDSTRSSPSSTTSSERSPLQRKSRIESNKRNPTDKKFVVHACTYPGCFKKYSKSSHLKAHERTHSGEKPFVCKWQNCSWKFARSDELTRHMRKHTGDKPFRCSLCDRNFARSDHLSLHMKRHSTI

In the case of “ACGCCCAC (double strand) [8-mer ACGCCCAC]”, the binding signal (PBM E-score (-0.5 to 0.5)) in data set [1] is 0.492; in [2] it was 0.494; in data set [3] it was 0.48; in [4], 0.454.

Turning to “CCGCCCAC (double strand) [8-mer CCGCCCAC]”, the binding signal (PBM E-score (-0.5 to 0.5)) in [5] was 0.489; in data set [1], 0.494; in data set [2] it was 0.494; in data set [4], 0.489.

Turning to “ACTACAAA (double strand) [8-mer ACTACAAA]”, the binding signal (PBM E-score (-0.5 to 0.5)) in data set [6] was determined as 0.492; in [7] it was 0.493; in data set [8] it was 0.491; in data set [9], 0.452.

With “AAGACATT (double strand) [8-mer AAGACATT]”, in data set [10], the binding signal (PBM E-score (-0.5 to 0.5)) was found to be 0.458.

“GGGGCGTA (double strand) [8-mer GGGGCGTA]” returned a binding signal (PBM E-score (-0.5 to 0.5)) in [4] of 0.462.

For the sequence “AAACTGCA (double strand) [8-mer AAACTGCA]”, the binding signal (PBM E-score (-0.5 to 0.5)) in [9] was determined as 0.475.

Regarding “AGGGGCGG (double strand) [8-mer AGGGGCGG]”, in data set [4], the binding signal (PBM E-score (-0.5 to 0.5)) was found to be 0.494.

“ATTTAAAT (double strand) [8-mer ATTTAAAT]”: the binding signal (PBM E-score (-0.5 to 0.5)) in [11] worked out at 0.47; in data set [12] it was 0.477.

Sequence “GAACTACA (double strand) [8-mer GAACTACA]” came in with a binding signal (PBM E-score (-0.5 to 0.5)) in [9] of 0.459.

In turn, “AACTGCAA (double strand) [8-mer AACTGCAA]” yielded a binding signal (PBM E-score (-0.5 to 0.5)) in data set [9] of 0.495.

Consider “TCAAGAAA (double strand) [8-mer TCAAGAAA]”, for which the binding signal (PBM E-score (-0.5 to 0.5)) in data set [10] was 0.462.

Regarding “AACTACAA (double strand) [8-mer AACTACAA]”, the binding signal (PBM E-score (-0.5 to 0.5)) in data set [6] is 0.489; in data set [7], 0.487; in data set [9], 0.492.

“CCAAGAAA (double strand) [8-mer CCAAGAAA]”: the binding signal (PBM E-score (-0.5 to 0.5)) in data set [10] stood at 0.472.

Regarding “CACGCCCC (double strand) [8-mer CACGCCCC]”, in [4], the binding signal (PBM E-score (-0.5 to 0.5)) stood at 0.473.

For the sequence “GACTACAA (double strand) [8-mer GACTACAA]”, the binding signal (PBM E-score (-0.5 to 0.5)) in [6] was found to be 0.488; in [7], 0.495; in data set [8], 0.476; in data set [9], 0.468.

In turn, “AACATCTT (double strand) [8-mer AACATCTT]” displayed a binding signal (PBM E-score (-0.5 to 0.5)) in data set [10] of 0.457.

Sequence “TGAAGAAA (double strand) [8-mer TGAAGAAA]” came in with a binding signal (PBM E-score (-0.5 to 0.5)) in data set [10] of 0.453.

In turn, “AAGATCTT (double strand) [8-mer AAGATCTT]” yielded a binding signal (PBM E-score (-0.5 to 0.5)) in [10] of 0.457.

In turn, “AGACTGCA (double strand) [8-mer AGACTGCA]” had a binding signal (PBM E-score (-0.5 to 0.5)) in data set [9] of 0.469.

“ACCGCCCC (double strand) [8-mer ACCGCCCC]” registered a binding signal (PBM E-score (-0.5 to 0.5)) in data set [4] of 0.476.

In turn, “ATGGGCGG (double strand) [8-mer ATGGGCGG]” showed a binding signal (PBM E-score (-0.5 to 0.5)) in data set [4] of 0.456.

In the case of “CTCCGCCC (double strand) [8-mer CTCCGCCC]”, the binding signal (PBM E-score (-0.5 to 0.5)) in [4] turned out to be 0.451.

For the sequence “GAACTGCA (double strand) [8-mer GAACTGCA]”, the binding signal (PBM E-score (-0.5 to 0.5)) in data set [9] came to 0.494.

The sequence “CGTCTTGA (double strand) [8-mer CGTCTTGA]” showed a binding signal (PBM E-score (-0.5 to 0.5)) in data set [10] of 0.454.

Turning to “AAATATAT (double strand) [8-mer AAATATAT]”, the binding signal (PBM E-score (-0.5 to 0.5)) in data set [11] came out at 0.452; in data set [13], 0.48.

With “AACGTCTT (double strand) [8-mer AACGTCTT]”, the binding signal (PBM E-score (-0.5 to 0.5)) in data set [10] was 0.48.

For the sequence “ACGCCCCT (double strand) [8-mer ACGCCCCT]”, the binding signal (PBM E-score (-0.5 to 0.5)) in [4] was 0.452.

On to “GACTGCAA (double strand) [8-mer GACTGCAA]”, for which the binding signal (PBM E-score (-0.5 to 0.5)) in [9] turned out to be 0.491.

“CAAGAAAA (double strand) [8-mer CAAGAAAA]”: the binding signal (PBM E-score (-0.5 to 0.5)) in [10] was 0.469.

The sequence “GGACTGCA (double strand) [8-mer GGACTGCA]” gave a binding signal (PBM E-score (-0.5 to 0.5)) in data set [9] of 0.476.

As for “ACGCCCCC (double strand) [8-mer ACGCCCCC]”, the binding signal (PBM E-score (-0.5 to 0.5)) in data set [5] was 0.486; in [1], 0.495; in [2], 0.495; in [4], 0.49.

“AAGAAAGT (double strand) [8-mer AAGAAAGT]” came in with a binding signal (PBM E-score (-0.5 to 0.5)) in data set [10] of 0.456.

On to “CGAAGAAA (double strand) [8-mer CGAAGAAA]”, for which the binding signal (PBM E-score (-0.5 to 0.5)) in data set [10] turned out to be 0.453.

In data set [9], “ACTGCAAA (double strand) [8-mer ACTGCAAA]” had a binding signal (PBM E-score (-0.5 to 0.5)) of 0.487.

On to “AATTAATT (double strand) [8-mer AATTAATT]”, for which the binding signal (PBM E-score (-0.5 to 0.5)) in [11] is 0.454; in data set [14], 0.492; in data set [15], 0.489.

Consider “ATATTAAT (double strand) [8-mer ATATTAAT]”, for which the binding signal (PBM E-score (-0.5 to 0.5)) came out at 0.453 in data set [11] and 0.467 in data set [16].

In [4], “GGGGCGGA (double strand) [8-mer GGGGCGGA]” registered a binding signal (PBM E-score (-0.5 to 0.5)) of 0.475.

“TCTTAAGA (double strand) [8-mer TCTTAAGA]”: the binding signal (PBM E-score (-0.5 to 0.5)) in [10] is 0.482.
